Data taken from the supplement of paper PMC9112550, “Optimization of the antimicrobial peptide Bac7 by deep mutational scanning” (BMC Biology, 2022).

system: Escherichia coli TOP10; test: shrunken log2 fold change of peptide-encoding DNA abundance (4.5 h post-induction vs induction); higher = less antimicrobial activity (less host growth inhibition); details: time post-induction: 4.5 h; library: site-saturation at positions 5, 18, 19, 20
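Also: peptides expressed intracellularly from a pBAD plasmid library in pooled LB shake-flask culture, induced with 0.3% L-arabinose, DNA abundance read by NGS, three biological replicates, DESeq2 with apeglm shrinkage.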

Sequence	shrunken log2 fold change
RRIRNRPPRLPRPRPRPVYIPRP	-0.434
RRIRQRPPRLPRPRPRPKSMPRP	-0.179
RRIRARPPRLPRPRPRPMDNPRP	-0.114
RRIRGRPPRLPRPRPRPKLSPRP	-0.0523
RRIRCRPPRLPRPRPRPHGFPRP	-0.0942
RRIRFRPPRLPRPRPRPEMGPRP	0.0117
RRIRTRPPRLPRPRPRPDSHPRP	-0.153
RRIRERPPRLPRPRPRPLANPRP	-0.225
RRIRIRPPRLPRPRPRPCCMPRP	-0.614
RRIRGRPPRLPRPRPRPLGMPRP	0.575
RRIRQRPPRLPRPRPRPQQYPRP	-0.0402
RRIRARPPRLPRPRPRPKPHPRP	0.579
RRIRFRPPRLPRPRPRPELMPRP	0.179
RRIRNRPPRLPRPRPRPEQIPRP	-0.0196
RRIRSRPPRLPRPRPRPNEMPRP	-0.252
RRIRFRPPRLPRPRPRPGILPRP	-0.187
RRIRERPPRLPRPRPRPGLAPRP	0.178
RRIRKRPPRLPRPRPRPCEYPRP	0.0394
RRIRHRPPRLPRPRPRPMKQPRP	-0.0525
RRIRKRPPRLPRPRPRPHYWPRP	-0.047
RRIRSRPPRLPRPRPRPQLFPRP	0.309
RRIRRRPPRLPRPRPRPKQSPRP	0.143
RRIRGRPPRLPRPRPRPIPQPRP	0.358
RRIRERPPRLPRPRPRPKIHPRP	-0.233
RRIRKRPPRLPRPRPRPHKKPRP	-0.127

Sequence	shrunken log2 fold change
RRIRQRPPRLPRPRPRPWMTPRP	-0.00186
RRIRYRPPRLPRPRPRPCICPRP	-0.0423
RRIRNRPPRLPRPRPRPVVIPRP	-0.077
RRIRGRPPRLPRPRPRPWRSPRP	0.172
RRIRGRPPRLPRPRPRPWSDPRP	0.0554
RRIRDRPPRLPRPRPRPPQFPRP	-0.15
RRIRVRPPRLPRPRPRPQGAPRP	0.168
RRIRWRPPRLPRPRPRPESWPRP	1.05
RRIRKRPPRLPRPRPRPDWDPRP	-0.193
RRIRMRPPRLPRPRPRPGCVPRP	0.967
RRIRYRPPRLPRPRPRPWCDPRP	-0.733
RRIRNRPPRLPRPRPRPHAFPRP	-0.0636
RRIRYRPPRLPRPRPRPGRPPRP	0.0326
RRIRRRPPRLPRPRPRPTMGPRP	0.0489
RRIRPRPPRLPRPRPRPLFFPRP	0.0106
RRIRKRPPRLPRPRPRPGMYPRP	0.102
RRIRPRPPRLPRPRPRPHMWPRP	-0.175
RRIRERPPRLPRPRPRPQRYPRP	-0.222
RRIRKRPPRLPRPRPRPGFQPRP	0.138
RRIRPRPPRLPRPRPRPEKTPRP	0.037
RRIRMRPPRLPRPRPRPECMPRP	2.53
RRIRWRPPRLPRPRPRPVEIPRP	-0.206
RRIRMRPPRLPRPRPRPICMPRP	0.024
RRIRCRPPRLPRPRPRPSPPPRP	0.252
RRIRIRPPRLPRPRPRPIEMPRP	-0.00843

Sequence	shrunken log2 fold change
RRIRPRPPRLPRPRPRPVSEPRP	-0.0288
RRIRRRPPRLPRPRPRPHAQPRP	0.0722
RRIRIRPPRLPRPRPRPYRMPRP	-1.26
RRIRVRPPRLPRPRPRPWDQPRP	-0.00149
RRIRQRPPRLPRPRPRPVEMPRP	-0.101
RRIRDRPPRLPRPRPRPSTCPRP	-0.0465
RRIRWRPPRLPRPRPRPMCYPRP	-0.308
RRIRHRPPRLPRPRPRPVHHPRP	-0.0583
RRIRVRPPRLPRPRPRPNHYPRP	-0.501
RRIRGRPPRLPRPRPRPCAWPRP	0.167
RRIRIRPPRLPRPRPRPKGPPRP	-0.14
RRIRVRPPRLPRPRPRPGRCPRP	0.627
RRIRHRPPRLPRPRPRPNMNPRP	-0.424
RRIRNRPPRLPRPRPRPISLPRP	-0.0292
RRIRWRPPRLPRPRPRPPTHPRP	0.469
RRIRYRPPRLPRPRPRPLTNPRP	-0.206
RRIRNRPPRLPRPRPRPIHWPRP	0.0944
RRIRSRPPRLPRPRPRPRNGPRP	0.308
RRIRFRPPRLPRPRPRPIQCPRP	-0.105
RRIRRRPPRLPRPRPRPEASPRP	0.75
RRIRFRPPRLPRPRPRPSPGPRP	-0.101
RRIRLRPPRLPRPRPRPYQGPRP	-0.388
RRIRFRPPRLPRPRPRPYAYPRP	-0.0128
RRIRERPPRLPRPRPRPCCVPRP	-0.743
RRIRVRPPRLPRPRPRPLLVPRP	-0.101
